# B1: HDV Ribozyme (parent)
# chain: GGCCGGCAUGGUCCCAGCCUCCUCGCUGGCGCCGGCUGGGCAACAUUCCGAGGGGACCGUCCCCUCGGUAAUGGCGAAUGGGACCCA
# Variants of: B1
# Assay: self-cleavage, relative activity (ratio to wild type); higher = more cleavage; co-transcriptional
row,Variant,self-cleavage
1,C33G U37A,0.225
2,C33G U37C,0.122
3,C33U C75A,0.0923
4,G34A U69A,0.166
5,C33U G81C,0.119
6,C33U A45C,0.494
7,C33U A45G,0.886
8,C33G G76C,0.229
9,C33G G76A,0.185
10,C33U A42C,0.259
11,C33U A42G,0.427
12,C33G G80C,0
13,G34A G67U,0.0811
14,G34A G67A,0.104
15,G34A G67C,0.0707
16,C33G U65A,0.156
17,C33U G50U,0.92
18,G34A C64U,0.133
19,G34A C64A,0.128
20,G34A C64G,0.0963
21,C33U G55A,0.972
22,G34A G54C,0.151
23,G34A G54U,0.17
24,G34A C48U,0.132

row,Variant,self-cleavage
1,C33U C64A,0.591
2,C33U C64U,0.785
3,C33U C84A,0.65
4,C33U C84U,0.479
5,C33U C84G,0.628
6,G34A A71C,0.0604
7,C33U U46G,0.65
8,C33U C61U,0.918
9,C33U C61G,0.831
10,C33U A71U,0.65
11,C33U A71C,0.374
12,C33U U69G,0.807
13,C33U U69C,0.956
14,G34A A43C,0.119
15,G34A A43U,0
16,C33U U60A,0.696
17,C33U U60G,0.935
18,G34A C44A,0.089
19,C33U C58U,0.917
20,C33U C58G,0.929
21,G34A A56C,0.151
22,G34A C57G,0.0997
23,G34A C57A,0.13
24,C33U A78U,0.378

row,Variant,self-cleavage
1,G34A G40C,0.0482
2,G34A G40A,0.181
3,G34A G80U,0.0903
4,G34A G80C,0.0819
5,C33U C63G,0.698
6,C33U G34A,0.293
7,C33U G34C,0.0978
8,G34A G73C,0.147
9,C33G U46C,0.185
10,C33G U46G,0.208
11,G34A A77C,0.095
12,G34A A77G,0.0639
13,G34A A87U,0.196
14,C33G U60G,0.217
15,G34A A42C,0.0354
16,G34A A42U,0.0326
17,G34A A42G,0.178
18,C33G U69A,0.201
19,C33G U69C,0.277
20,G34A U37G,0.219
21,C33U G59A,0.897
22,C33G G73C,0.253
23,C33G G73A,0.0308
24,C33G G73U,0.138

row,Variant,self-cleavage
1,C33U G74A,0.277
2,C33U C36G,0.0665
3,G34A G81U,0.07
4,C33U G82C,0.245
5,G34A U46A,0.121
6,G34A G68C,0.0978
7,G34A G68U,0.171
8,G34A G68A,0.144
9,C33U A43G,0.227
10,C33U A43C,0.248
11,C33U A43U,0.356
12,C33U,0.847
13,C33G G55C,0.158
14,C33G G55A,0.218
15,C33G G68A,0.177
16,G34A C84G,0.104
17,G34A C84U,0.142
18,C33U C48G,1.05
19,C33U C48U,0.847
20,C33U A70C,0.931
21,C33U A70U,0.755
22,C33U G80C,0.143
23,G34A G38U,0.138
24,G34A A78C,0.157

row,Variant,self-cleavage
1,G34A A78G,0.157
2,G34A G50U,0.187
3,G34A G35A,0.145
4,G34A G35C,0.0378
5,G34A G35U,0.113
6,C33U G40A,1.06
7,C33U G40C,0.286
8,G34A G82C,0.261
9,C33G G81A,0.128
10,C33G G81C,0.151
11,G34A C36U,0.0623
12,G34A A51U,0.174
13,G34A A51G,0.0504
14,C33U A56G,0.665
15,C33U A56C,0.658
16,C33U C44U,0.543
17,C33U G67U,0.816
18,C33U G67C,0.771
19,G34A U47C,0
20,C33G U47C,0.317
21,C33G U47A,0.227
22,G34A A45C,0.299
23,G34A A45G,0.199
24,C33U C41A,0.7

row,Variant,self-cleavage
1,C33U C41U,0.646
2,C33G G59A,0.188
3,C33G G59U,0.111
4,G34A C75G,0.203
5,C33U G52C,0.596
6,C33U U37A,0.17
7,C33U U37G,0.0462
8,C33U U72G,0.405
9,C33U G39C,0
10,C33U G39U,0.58
11,C33U C49U,1.06
12,C33U A51C,1.3
13,C33U A51U,0.848
14,G34A G52A,0.286
15,G34A G52U,0.143
16,G34A G52C,0.0545
17,G34A A70C,0.0941
18,G34A G76A,0.257
19,G34A G76U,0.269
20,G34A G53C,0.215
21,G34A G53U,0.17
22,G34A U60G,0.237
23,G34A C86G,0.121
24,G34A C86U,0.176

row,Variant,self-cleavage
1,C33G G74U,0.173
2,G34A C63U,0.0656
3,G34A G39A,0.198
4,C33U G38U,0.0978
5,C33U G38C,0.125
6,G34A C85U,0.163
7,G34A C85A,0.199
8,C33U U79C,0.325
9,C33U U79G,0.429
10,G34A C66G,0.138
11,G34A C49U,0.3
12,G34A C49A,0.0852
13,C33U C85A,0.831
14,C33U C85U,0.831
15,C33G G67A,0.089
16,C33G G67C,0.0978
17,C33U U47G,0.692
18,C33U U47C,0.682
19,C33U U47A,0.872
20,C33G G82C,0.0405
21,C33U A77U,0.439
22,C33U A77G,0.554
23,G34A A83U,0.0831
